± gives the uncertainty stated by the source.
Test: amyloid nucleation score (Sup35N fusion, yeast selection) (log enrichment); library NNK2; higher = more nucleation; inactive = no reads after selection
In short: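 Three technical output replicates were used for random libraries. Psi-negative yeast expressing peptides of 20 random codons fused to Sup35N were induced with 100 μM copper sulfate for 24 hours and grown 7 days at 30°C on medium lacking adenine and uracil, and input and output plasmid inserts were Illumina-sequenced, excluding sequences with under 100 input reads. The nucleation score is the DiMSum log enrichment of output over input reads, centred on the mode score of non-aggregating sequences.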

Substance	amyloid nucleation score
MQMLWYTMFFNSSRLVC	-1.58 ± 0.61
MQWETSGVLCWSKQFGGDWV	0.864 ± 0.23
MRLLVHSWDIESSFNVRMGQ	3.42 ± 0.058
MRPAPIINN	1.14 ± 0.44
MRSYRLYLIPFHFLGWLINS	inactive
MRYSPWQGTHILWVLNTTSY	1.82 ± 0.32
MSFWMSTTINRN	1.67 ± 0.1
MSFYFNFIYYFYSYFTFEWF	inactive
MSHTVITFFVCIVYSFSHCL	1.86 ± 0.3
MSIEKCICLICSINMEVVGF	6.821 ± 0.059
MSITSC	inactive
MSLIKTHGKLTVGDVDFPKF	-0.753 ± 0.44
MSLSLQKYFLWRPGRAPVVR	-0.03 ± 0.63
MSLSNDHSGAVWRRAFGYSE	0.51 ± 0.51
MSRIRTTTMNSGFGGYTPVL	3.06 ± 0.056
MSRKWGGSKRCNGCPPKLVQ	1.08 ± 0.22
MSSASQILAHDYQNSYG	-0.383 ± 0.32
MSSMCNLFRYMFKLYVRSWV	-0.681 ± 0.3
MSVMWLASLISFQLFMAAQL	0.062 ± 0.79
MSVPFLWFTYHFSRPVLSVT	0.389 ± 0.27
MSWAVRDSIHRNYLKFVNRR	-0.02 ± 1.1
MSYILFCLPSNARCFLP	inactive
MTALATRRCHPLYISA	-0.661 ± 0.42
MTKCTDHVRVDDVCLHIRGS	-0.255 ± 1.1
MTKHV	0.241 ± 0.8

Substance	amyloid nucleation score
MTRTFYCFQGRHLDSWDQGE	0.371 ± 0.8
MTSALGWQIYVYLSGAEYET	0.31 ± 0.5
MTSENNWPNYTGLAPTPPAA	1.32 ± 0.18
MTSLGVPNAYCEGNGAWYHR	0.321 ± 0.21
MTVNSLFHRLNKLRGILPDR	-0.902 ± 0.48
MTVYLLIVLKFCFRRMSPEA	-0.255 ± 0.49
MTWARRRSINIYDRHLRMAG	-0.388 ± 1
MVAYFPMSPG	-0.076 ± 0.24
MVCKLTFRRRCPMNRSRHQV	0.469 ± 0.43
MVLEGHKCYGLRNGPNNARI	0.451 ± 0.49
MVLIENSCKMSSYQE	-0.405 ± 0.35
MVNCDYGPLLS	inactive
MVSYKVLEYYVSLITTHLLF	-0.36 ± 0.49
MVVGFRLPERLTYWRGGHMS	5.324 ± 0.047
MVVYRVPMAQLLPS	inactive
MWLLWAKI	inactive
MWLSPRVVVFCRLIFHLLVG	-0.567 ± 1.1
MWMEVTRPPTGHFRIRGGQA	inactive
MWNQDLSFFCITRDIKVCTF	4.87 ± 0.06
MWSVLNHLRSDSDFSNA	1.13 ± 0.61
MYCYSHDQCESLGQRSFGDT	0.218 ± 0.8
MYISKVFDALLLLRREPRHR	inactive
MYLCTGFASSFIKSHHITWR	-0.098 ± 0.43
MYNRG	3.87 ± 0.11
MYVDLKLSYNHSPATLW	5.22 ± 0.061

Substance	amyloid nucleation score
MYVMTHNL	0.776 ± 0.44
NAHMSRRGYSSMMRCY	inactive
NARITVLGSHPWLCPGKVSV	1.06 ± 0.54
NARVL	-0.853 ± 0.64
NASYRCNM	inactive
NCARH	-0.215 ± 0.3
NCAVFTSGR	-0.478 ± 0.63
NCHFTCMPAACGETVKTY	0.597 ± 0.45
NCIFDMLLVLR	inactive
NCLEIQFWRLSSRYVGKFVM	-0.113 ± 0.32
NCLSM	3.36 ± 0.081
NCPRWICAILYEYHAVRRRV	0.713 ± 0.49
NCPSPLVWDCVLVVGDPVAC	0.217 ± 0.25
NCSSIF	inactive
NCYRLWWPVLSTWWRFFI	0.047 ± 0.35
NDCMGWH	inactive
NDLSNGSVESMRQYYYLREN	-0.724 ± 0.3
NDRNYLSGSGESELLPDCND	-0.434 ± 0.76
NDSNYKPANSYRSPSGNRMV	inactive
NDSQTTLGLFDCRVREADHR	-0.003 ± 1.1
NDTAATGANDETSDFYTEYC	0.376 ± 0.66
NDTWR	3.68 ± 0.049
NDVNDLMGCTNQRGMYPQII	inactive
NDWLSHGR	4.31 ± 0.054
NDYEPRCMFGRIVCSNGPEM	1.14 ± 0.42

Substance	amyloid nucleation score
NEEWSFCKS	-0.165 ± 1
NENKILSDL	-0.585 ± 0.36
NFCALSKCT	-0.618 ± 0.63
NFENCVFWYNLYCNFD	7.516 ± 0.047
NFFAHRVCHYFVIRCGLIT	inactive
NFHLEIIFPRQLRLNRSPWV	3.96 ± 0.13
NFIVW	-0.417 ± 0.64
NFKCFTRRVNWESYITEVVR	3.19 ± 0.068
NFLRML	-0.139 ± 0.21
NFLWVLSRKSHGIPYRKFSN	inactive
NFNFNCA	3.87 ± 0.093
NFSAFGRFNLNLWMNNITRL	4.05 ± 0.077
NFSDFRCLL	-0.031 ± 1
NFSIL	-0.184 ± 1.1
NFTIHTWVYMHRVNPPGILN	inactive
NFVNSFRVPISVYKVYLYGG	4.49 ± 0.08
NGFCYFDGLSLSYSKLTGMM	inactive
NGFVSSSRSFICFRWKWRYY	0.255 ± 1.1
NGGAVFCVHACYGFRGRYER	5.05 ± 0.045
NGGDRVLSFDIIIAGSLVAK	-0.354 ± 0.39
NGIRQDNMGGVHVPTGSTII	-0.277 ± 0.39
NGLGLTIWL	0.448 ± 0.22
NGLQRLITNSKFPTRWTWFG	0.206 ± 0.33
NGQYDDTG	2.32 ± 0.14
NGSSKIERDQRRWGQKAVDT	2.83 ± 0.089

Substance	amyloid nucleation score
NGTLRQYDRSDYINKIGDSN	-1.02 ± 0.38
NGVIRVSWSTR	6.48 ± 0.087
NGVPT	-1.43 ± 1.1
NGVSMESRFQFSDWWNPTYY	-0.847 ± 0.64
NGYRNFIRGHDSRFRGVTTT	4.66 ± 0.05
NHIFYRMCSNLTAKYIRLTS	inactive
NHLMSMFDCSDTQMSSSSIA	0.308 ± 0.32
NHTSNIGSRGTAFFWVLR	7.187 ± 0.069
NICELPITHKVGSWV	0.518 ± 0.38
NICRM	-0.058 ± 0.53
NIFNRA	inactive
NIFRESEAERRALNKFYMSF	0.04 ± 0.76
NIFRRLLSIIIVFDQDRRKM	-1.01 ± 1.1
NILIRASGVRA	inactive
NINMWSLCRFLWDAFARR	0.378 ± 0.26
NIQPEK	-0.587 ± 0.39
NIVLTLSRGF	2.56 ± 0.1
NIVRYAMELCDIN	4.08 ± 0.1
NIVVPRRL	2.53 ± 0.13
NIYLFMLMWDWTSYMALCCV	3.94 ± 0.081
NKANLLYSPLLCLMAVHRMY	inactive
NKMEDHGMWDLIAYRGVIPL	-0.269 ± 0.22
NKVAKLDFFFLKGPAFRNKA	inactive
NLARYLLRKELARYFMSQ	-0.578 ± 0.41
NLCSKRRNL	-0.927 ± 0.78

Substance	amyloid nucleation score
NLFKDTISSLHNGIETIAPF	-0.82 ± 0.61
NLFLFVRGLGRGWSWWWEVR	0.415 ± 0.8
NLHFCVQKSGESASRVVHHA	0.958 ± 0.46
NLHLSGKMGSPTFRVRIYAH	inactive
NLILYPRHDNYQSS	inactive
NLMIKCVGR	-1.05 ± 0.76
NLMVHVFAAVMGINDLKC	1.41 ± 0.18
NLNIFGLAMLCNRRGAYMRK	6.829 ± 0.039
NLNPRCIACLQQPTFHMKMA	-0.101 ± 0.32
NLPIGLCSAGRFLGNNL	0.123 ± 1
NLPLL	-0.027 ± 0.54
NLQSTMMLYYCFRVMMLLAW	-0.762 ± 0.38
NLRSLECLCMRCK	-0.145 ± 0.79
NLSRV	-0.741 ± 0.34
NLTNRYFNFSRTEPCNKYLT	0.895 ± 0.81
NLVTFVWKRYLINIISVTKD	-1.51 ± 1.1
NMPFYRFAKRTWFRNPQSFV	-1.19 ± 1
NMPHPHEFIRSPCICLRHVV	inactive
NMRSNRVSLVPDGMLRLSAN	1.39 ± 0.28
NMSLHRAILGFKAATIMRSL	-0.821 ± 1.1
NMYFEVALFT	-1.22 ± 0.64
NNIGS	inactive
NNIVIYDDLYNSMMALLWS	-1.25 ± 0.64
NNLCQ	-0.1 ± 0.32
NNSMYILYSGYTFGCYTRGL	6.38 ± 0.066

Substance	amyloid nucleation score
NNVPCRSIADVYALEFLYAS	inactive
NPALSSWAEGSTP	0.299 ± 0.61
NPRTQF	-0.108 ± 0.28
NPVINT	-0.271 ± 0.46
NQFNVFFASVVLVVGCICNH	7.622 ± 0.029
NQGIKRRLFHNWLNRGRLLF	inactive
NQITDMLIFWFVGIRWFYSE	0.679 ± 0.81
NQLRVLMTFFWPGMLNTPAV	-0.089 ± 1.1
NQMYQNE	-0.352 ± 0.45
NQNVSLGVTMCFNSNYDRQG	7.53 ± 0.081
NQTPLMLACSADFHSISSWT	0.365 ± 0.4
NRCWGDHEV	0.435 ± 0.39
NRCYHFRDCQVYLTQDASWA	8.515 ± 0.048
NREANLDDWLGRGQFSMIWW	-0.287 ± 0.79
NREFCFFVSDVKIPYTPCVP	-0.609 ± 0.32
NRGEDSPSYPGCHHMKLCIC	inactive
NRGISLGIHLRPGCMCAAHR	0.005 ± 1
NRIGDIGFSPNMCQAPNDVD	0.095 ± 0.53
NRKTIIVEPTNACRS	0.775 ± 0.29
NRKWIDRLVYKGNNPYHGEV	0.906 ± 0.57
NRLLSVSEFAMDTRMRQEEA	1.01 ± 0.36
NRLWHPQCLWAFLNIRNPQL	0.286 ± 0.48

Reference: the supplement of paper PMC12042874
